We go through 8 molecules from patent US20250376535A1 (BEIJING STARMAB BIOMED TECHNOLOGY, published 2025).

B1: 4-1BB-3 (VHH, not shown: small tags and cut ends)
VHH: EVQLVESGGGLVQAGGSLRLSCAASGNIFSYNGMAWYRQAPGNQRELVAVVAIDGTAKYADTVKGRFTISRDNIKNTVNLEMNSLKPEDTAVYTCAALRNSGSTSWGQGTQVTVSS
B2: 4-1BB-10 (VHH, not shown: small tags and cut ends)
VHH: EVQLVESGGGLVQAGGSLRLSCAASGAIFSYNGMAWYRQAPGKQREFVAVITPDGTTKYGDSVKGRFTISRDITKNTVDLEMNSLKPEDTAVYTCAALRNSGSTSWGQGTQVTVSS
B3: 4-1BB-36 (VHH, not shown: small tags and cut ends)
VHH: EVQLVESGGGLVQPGGSLRLSCAASRRTFSSYTAGWFRQAPGKEREFVASIRWISGTTTYADSVNGRFTISRDIAKNTVYLQMNSLKPDDTAVYYCAVDLSSDNDYDYWGQGTQVTVSS
B4: 4-1BB-9 (VHH, not shown: small tags and cut ends)
VHH: QVQLVESGGGLVQAGGSLRLSCAASGSIFSYNAVAWYRQAPGKQRELVAVITSGGETTKYADSVKGRFTISRDITKNAVDLQMVSLKPEDTAVYTCAALRNSGSTSWGQGTQVTVSS
B5: 4-1BB-2 (VHH, not shown: small tags and cut ends)
VHH: QVQLVESGGGLVQAGGSLRLSCAASGSIFSYNAMAWYRQAPGKQRELVALITSDRTTKYADSVKGRFTISRDDTKNTVDLEMNSLKPEDTAVYTCAALLNSARTSWGQGTQVTVSS
B6: 4-1BB-39 (VHH, not shown: small tags and cut ends)
VHH: QVQLGSLGGGSAQPGGSLRLSCTGSGNVYDFVVMGWYRQFPGRQRELVANITGRASPNYVDSVKGRFTISRDNAQNTVHLQMNNLKVEDSAIYYCYAAQQLTTIAGVMTLDYWGSGTQVTVSS
B7: 4-1BB-1 (VHH, not shown: small tags and cut ends)
VHH: QVQLVESGGGLVQAGGSLRLSCAASENIFSFNAMAWYRQAPGKQRELVALITGDGTTKYADSVKGRFTIARLNAKNTVNLEMNSLKPEDTAVYTCAALRNSDRTSWGQGTQVTVSS
B8: 4-1BB-56 (VHH, not shown: small tags and cut ends)
VHH: QVQLVESGGGLVQTGGSLRLSCAASGRISTIDTMFWYRQTPGKERDWVAFIPKDGLPTYVDSVKGRFTVSRDNARNTVYLQMNGLKPEDTAVYYCAVDVQEDRMRTYWGQGTQVTVSS

T2 sequence (Q07011 24-183 limits assumed): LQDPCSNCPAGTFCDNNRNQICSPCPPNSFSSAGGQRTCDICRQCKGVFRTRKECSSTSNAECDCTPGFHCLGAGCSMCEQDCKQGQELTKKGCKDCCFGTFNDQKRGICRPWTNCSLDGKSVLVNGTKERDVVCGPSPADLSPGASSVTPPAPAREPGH
T1 sequence (Q07011 24-183): as the sequence (Q07011 24-183 limits assumed) above

The first experiment addresses T1, 4-1BB Fc (human, UniProt Q07011 24-183).
T1 construct: also called rh-41BB; 41BB-hFc
Briefly: ELISA, 4-1BB Fc coated, VHH at 5 nM.
Experimental: (§1) After four rounds of washing with PBST, the plate was incubated with detecting antibody anti-his-HRP (1:4000 dilution) 100 μl per well for one hour with shaking at 60 rpm. The plate was developed with 100 μL of TMB per well in the dark and then stopped by 50 μL of stop solution per well. […] Data was analyzed using GraphPad Prisma 9.1.
B1 showed an OD450 of 0.089.

B2: the OD450 amounted to 0.828.

The molecule B3 showed an OD450 of 1.35.

Molecule B4 yielded an OD450 of 0.084.

B5: the OD450 was 0.07.

Take B6: the OD450 was 0.07.

For the molecule B7, the OD450 amounted to 0.108.

On to B8, for which the OD450 stood at 2.89.

For another experiment, the target named is T1, 4-1BB Fc. Kind of experiment: ELISA, 4-1BB Fc coated, VHH at 0.0005 nM.
Experimental: as §1
The molecule B1 came in with an OD450 of 0.062.

In turn, B2 showed an OD450 of 0.068.

As to B3, the OD450 was 0.071.

B4 displayed an OD450 of 0.067.

The molecule B5 yielded an OD450 of 0.058.

As to B6, the OD450 is 0.072.

B7 displayed an OD450 of 0.065.

The molecule B8 displayed an OD450 of 0.181.

In a further experiment the target is T1, 4-1BB Fc. Briefly: ELISA, 4-1BB Fc coated, VHH at 0.05 nM.
Experimental: as §1
B1 gave an OD450 of 0.06.

As for B2, the OD450 stood at 0.065.

Molecule B3 showed an OD450 of 0.078.

Molecule B4 gave an OD450 of 0.065.

In turn, B5 showed an OD450 of 0.067.

B6 gave an OD450 of 0.068.

For B7, the OD450 worked out at 0.061.

In turn, B8 displayed an OD450 of 0.397.

Another experiment deals with T1, 4-1BB Fc. Briefly: ELISA, 4-1BB Fc coated, VHH at 0.005 nM.
Experimental: as §1
Molecule B1 showed an OD450 of 0.067.

For B2, the OD450 was 0.066.

With B3, the OD450 was 0.068.

On to B4, for which the OD450 came to 0.064.

B5: the OD450 was found to be 0.063.

In turn, B6 registered an OD450 of 0.064.

In the case of B7, the OD450 turned out to be 0.064.

With B8, the OD450 is 0.203.

For the next experiment, the target named is T1, 4-1BB Fc. Briefly: ELISA, 4-1BB Fc coated, VHH at 50 nM.
Experimental: as §1
The molecule B1 gave an OD450 of 0.183.

Take B2: the OD450 came to 1.76.

As for B3, the OD450 worked out at 3.19.

In turn, B4 yielded an OD450 of 0.292.

As for B5, the OD450 was found to be 0.129.

Molecule B6 returned an OD450 of 0.065.

As for B7, the OD450 worked out at 0.308.

With B8, the OD450 amounted to 3.08.

A further experiment addresses T2, Human 41BB antigen (BLI) (human, UniProt Q07011 24-183).
T2 construct: also called 41BB protein
Kind of experiment: BLI, VHH-His on anti-His tips, human 41BB in solution.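 Further: association tracked for 200 s, after which dissociation was followed in 1×PBS free of 41BB protein.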
Experimental: Tips were loaded using 20 μg/ml of anti-41BB VHH. Loading proceeded for 300 sec resulting in capture levels of between 1.8 and 2 nm. […] Association was initiated and monitored for 200 sec, after which tips were transferred to 1×PBS buffer without 41BB protein, in order to monitor dissociation.
As for B1, the Kd stood at 1.82 nM, the koff worked out at 0.00129 s⁻¹ and the kon was 708000 M⁻¹ s⁻¹.

B2 registered a Kd of 0.657 nM, a koff of 0.000539 s⁻¹ and a kon of 820000 M⁻¹ s⁻¹.

B3 registered a Kd of 29.2 nM, a koff of 0.00919 s⁻¹ and a kon of 314000 M⁻¹ s⁻¹.

Take B4: the Kd came to 4.55 nM, the koff worked out at 0.00276 s⁻¹ and the kon is 606000 M⁻¹ s⁻¹.

With B5, binding was put at a Kd of 2.57 nM, the koff came out at 0.00252 s⁻¹ and the kon is 979000 M⁻¹ s⁻¹.

In turn, B7 returned a Kd of 3.17 nM, a koff of 0.00264 s⁻¹ and a kon of 834000 M⁻¹ s⁻¹.

Consider B8, for which the Kd is 0.781 nM, the koff was found to be 0.000552 s⁻¹ and the kon amounted to 707000 M⁻¹ s⁻¹.

In the next experiment the target is T1, 4-1BB Fc. Briefly: ELISA, 4-1BB Fc coated, VHH at 500 nM.
Experimental: as §1
With B1, the OD450 is 0.165.

B2 had an OD450 of 1.58.

B3 gave an OD450 of 4.25.

With B4, the OD450 turned out to be 0.264.

For the molecule B5, the OD450 amounted to 0.112.

Molecule B6 yielded an OD450 of 0.098.

As for B7, the OD450 stood at 0.547.

In turn, B8 displayed an OD450 of 2.7.

A further experiment deals with T1, 4-1BB Fc. Briefly: ELISA, 4-1BB Fc coated, VHH at 0.00005 nM.
Experimental: as §1
In turn, B1 registered an OD450 of 0.066.

B2 came in with an OD450 of 0.068.

With B3, the OD450 was 0.073.

Consider B4, for which the OD450 amounted to 0.07.

The molecule B5 registered an OD450 of 0.065.

B6 gave an OD450 of 0.063.

B7 came in with an OD450 of 0.067.

B8 came in with an OD450 of 0.129.

The next experiment has as its target T1, 4-1BB Fc. Kind of experiment: ELISA, 4-1BB Fc coated, VHH at 0.5 nM.
Experimental: as §1
The molecule B1 returned an OD450 of 0.065.

B2 displayed an OD450 of 0.11.

B3 had an OD450 of 0.202.

In the case of B4, the OD450 turned out to be 0.061.

In the case of B5, the OD450 was found to be 0.059.

Take B6: the OD450 worked out at 0.059.

Take B7: the OD450 came to 0.106.

Take B8: the OD450 worked out at 1.69.
